Assay results from patent US20220411517A1 (LEO PHARMA A S, published 2022).

B1: h11C5 YKD (antibody, human IgG1, kappa, V domains shown)
VH: EVQLVESGGGLVQPGGSLRLSCAASGFTFSNYAMSWVRQAPGKGLEWVATVTEGGDYNYYLDDVKGRFTISRDNAKNSLYLQMNSLRAEDTAVYYCARDDWPYFFDYWGQGTLVTVSS
VL: DIQMTQSPSSLSASVGDRVTITCRASENIYSNLAWYQQKPGKSPKLLVYGYKNLADVPSRFSGSGSGTDYTLTISSLQPEDFATYYCQHFKTTPRTFGGGTKVEIKR
notes: Variable domains of h11C5 YKD on the same modified IgG1 kappa constant regions (AEASS); Printed as 'h1105' in much of the text; also called h1105
B2: 1A05_rbh_FabCys-AviH (Fab, V domains shown)
VH: LEQSGGGAEGGLVKPGGSLELCCKASGFSLSTSYWRCWVRQAPGKGLEWIGCIYAGSGDVTYYANWVNGRFTLSRDIDQSTGCLQLNSLTAADTAMYYCASGVGFGYFNLWGQGTLVTVSS
VL: ALVMTQTPSPVSAAVGGTVTINCQASEDIYSNLAWFQQKPGQPPKLLIYDASTLASGVPSRFSGSGSGTEFTLTISGLQSDDAATYYCLGVYTHISADNAFGGGTEVVVKR
notes: Tested as disulphide-linked Fab with Avi and His tags; also called 1A05 in FabCys-AviHis format; 1A05 (R001032)
B3: Y024084_h_IgG1f_AEASS (antibody, V domains shown)
VH: QVQLVQSGAEVKKPGASVKVSCKASGYTFTSYYMHWVRQAPGQGLEWMGIINPSGGSTSYAQKFQGRVTMTRDTSTSTVYMELSSLRSEDTAVYYCARGFVTSGIDYWGQGTLVTVSS
VL: QSVLTQPPSVSAAPGQKVTISCSGSSSNIGNNYVSWYQQLPGTAPKLLIYDNNKRPSGIPDRFSGSKSGTSATLGITGLQTEDEADYYCQTWTYTGRLWIVFGGGTKLTVLG
notes: also called Morphosys 24084; Mor Y024084
B4: R001031 (CAN04) (antibody, human IgG1, kappa, V domains shown)
VH: QVQLVQSGAEVKKPGSSVKVSCKASGYAFSSSWMNWVRQAPGQGLEWMGRIYPGDGNTHYAQKFQGRVTLTADKSTSTAYMELSSLRSEDTAVYYCGEGYLDPMDYWGQGTLVTVSS
VL: DIQMTQSPSSLSASVGDRVTITCSASQGINNYLNWYQQKPGKAPKLLIHYTSGLHAGVPSRFSGSGSGTDYTLTISSLQPEDVATYYCQQYSILPWTFGGGTKVEIKR
notes: Variable domains of prior art CAN04 on human IgG1 kappa constant regions with AEASS
B5: CAN04_h_FabCys-AviH (Fab, V domains shown)
VH: B4 VH
VL: B4 VL
notes: Tested as disulphide-linked Fab with Avi and His tags; also called CAN04 in FabCys-AviHis format; CAN04 (R001031)

Assays:
[1] = molecular target: human IL-1RAcP on cells (human, UniProt Q9NPH3 21-570); test: cell-based or functional assay
[2] = molecular target: cynomolgus IL-1RAcP on cells (cynomolgus, UniProt A0A2K5X5J5 21-570); test: cell-based or functional assay
[3] = molecular target: T1, cyIL-1RAP(1-367)_F-chLys_Avi (cynomolgus, biotinylated (Avi tag) in SPR; unlabeled in SET); test: solution equilibrium titration (SET), ECL read-out, IgG
T1 construct: cynomolgus IL-1RAcP (21-367) is UniProt A0A2K5X5J5; also called cynomolgus IL-1RAcP (AG-12211)
Description: (§1) MSD SulfoTAG™ NHS-Ester (Meso Scale Diagnostics) according to the manufacturer's instructions. […] Serial dilutions of unlabeled antigen were prepared, starting with a concentration at least 10 times higher than the expected KD. Wells without antigen were used to determine Bₘₐₓ values;
(§2) wells containing only assay buffer were used to determine background. […] MSD plates were coated with antigen on standard plates (30 μL per well). After washing the plate with PBS with 0.05% Tween 20, the equilibrated samples were transferred to the plates and incubated for 20 min. […] After washing the MSD plate and adding 30 μL/well MSD Read Buffer T with surfactant, electrochemiluminescence signals were detected using a MESO SECTOR S 600 (Meso Scale Diagnostics).
(§3) The data was evaluated with XLfit (IDBS) software applying customized fitting models.

[4] = molecular target: T2, hIL-1RAP(1-367)_F-chLys_Avi (human, biotinylated (Avi tag) in SPR and ELISA binning; unlabeled in SET); test: as above
T2 construct: also called human IL-1RAcP (AG-12210)
Description: as §1, §2, §3

[5] = molecular target: T2, hIL-1RAP(1-367)_F-chLys_Avi; test: ELISA binning; competitor: coated Y024084 FabCys-AviHis (sheet title Y024084_FAB COATED); 1.5 nM biotinylated human IL-1RAcP (AG-12210) pre-incubated with the titrated Fab; captured IL-1RAcP detected with streptavidin-AP
Description: (§4) Epitope binning was performed using an ELISA-based competition assay. The experiments were performed using either IgG1f_AEASS or FabCys-AviHis. Antibodies were diluted to three (3) nM (for IgGs) or to 20 nM (in case of Fabs) in PBS. […] The next day 90 μL/well blocking solution (5% BSA in PBS) was added to the plate followed by an incubation at RT for at least 1 h. During incubation, the competing antibodies, including reference and negative control antibodies, were diluted in assay buffer (1xPBS, 0.5% BSA, 0.02% Tween). […] Following the incubation of the blocking solution, the ELISA plates were washed 3× with PBST. Subsequently, 20 μl/well of the prepared antibody/antigen solution was transferred to the wells and incubated for 30 min with gentle agitation. Subsequently, plates were washed 3× using PBS-T.
(§5) For detection 20 μl of a prepared streptavidin-alkaline phosphatase conjugate solution was added to the wells in order to detect bound biotinylated human IL-1RAcP. Incubation happened for 30 min with gentle agitation. Following the incubation with streptavidin-alkaline phosphatase conjugate, assay plates were washed 5× with PBS-T. Then 20 μl of AttoPhos substrate (diluted 1:5 in H₂O) was added to the wells. Plates were incubated for 10 min at RT and readout happened using a Tecan M1000 Pro Reader.
(§6) Every graph represents an individual first antibody in the FabCys-AviHis format coated on the surface. […] Subsequently, preformed antigen antibody complex was added to the respective wells with the surface coated first antibody. Detection happened via the biotin of IL-1RAcP using a streptavidin-alkaline phosphatase conjugate.

[6] = molecular target: T2, hIL-1RAP(1-367)_F-chLys_Avi; test: SPR (Biacore), biotinylated antigen captured, FabCys-AviHis as analyte, 1:1 fit
Description: (§7) Approximately 3000 RU capture reagent was bound. This surface was used to load biotinylated antigen to generate a low-density surface for subsequent kinetic characterization (approx. 60-100 RU antigen loaded). […] After injecting the last and highest analyte concentration, a long dissociation phase was recorded. […] A blank injection of assay buffer (HBS-EP+) following the same injection pattern as described above was recorded and subtracted from specific sensorgrams during analysis (double referencing). At the end of each cycle, the sensor was regenerated with one 120 s injection of 6 M guanidine hydrochloride in 250 mM NaOH, which completely removed capture reagent with loaded biotinylated antigen and bound Fab fragments. The obtained sensorgrams were fitted to a monovalent binding model using Biacore Insight Evaluation Software. The obtained values for rate constants kₒₙ and koff were used to calculate KD.

[7] = molecular target: T2, hIL-1RAP(1-367)_F-chLys_Avi; test: ELISA binning; competitor: coated Y024148 FabCys-AviHis; 1.5 nM biotinylated human IL-1RAcP (AG-12210) pre-incubated with the titrated Fab; captured IL-1RAcP detected with streptavidin-AP
Description: as §4
For detection 20 μl of a prepared streptavidin-alkaline phosphatase conjugate solution was added to the wells in order to detect bound biotinylated human IL-1RAcP. Incubation happened for 30 min with gentle agitation. Following the incubation with streptavidin-alkaline phosphatase conjugate, assay plates were washed 5× with PBS-T. Then 20 μl of AttoPhos substrate (diluted 1:5 in H₂O) was added to the wells. Plates were incubated for 10 min at RT and readout happened using a Tecan M1000 Pro Reader. […]

[8] = molecular target: T1, cyIL-1RAP(1-367)_F-chLys_Avi; test: SPR (Biacore), biotinylated antigen captured, FabCys-AviHis as analyte, 1:1 fit
Description: as §7

[9] = molecular target: T2, hIL-1RAP(1-367)_F-chLys_Avi; test: ELISA binning; competitor: coated CAN04 FabCys-AviHis; 1.5 nM biotinylated human IL-1RAcP (AG-12210) pre-incubated with the titrated Fab; captured IL-1RAcP detected with streptavidin-AP
Description: as §4, §5, §6

[10] = molecular target: T2, hIL-1RAP(1-367)_F-chLys_Avi; test: ELISA binning; competitor: coated Y024149 FabCys-AviHis (sheet title Y024149_FAB COATED); 1.5 nM biotinylated human IL-1RAcP (AG-12210) pre-incubated with the titrated Fab; captured IL-1RAcP detected with streptavidin-AP
Description: as §4, §5, §6

[11] = molecular target: T3, human IL1RAcP domain 1 (AG-12335) (human); test: ELISA on directly coated human IL-1RAcP domain 1 (AG-12335), IgG titrated, S/BG
T3 construct: also called domain 1 of human IL-1RAcP
T3 chain: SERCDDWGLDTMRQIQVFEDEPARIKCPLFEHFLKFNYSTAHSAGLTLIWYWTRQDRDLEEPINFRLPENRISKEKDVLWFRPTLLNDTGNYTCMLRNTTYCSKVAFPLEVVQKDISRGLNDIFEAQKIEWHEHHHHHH
Description: All were assessed with direct coating of the antigen. […] An anti-His antibody served as positive control.

[12] = molecular target: T2, hIL-1RAP(1-367)_F-chLys_Avi; test: ELISA on human IL-1RAcP (AG-12210), IgG1f_AEASS titrated 0.007-200 nM, AP-coupled secondary antibody with AttoPhos, signal over background (S/BG)
Excerpt: (§8) Bound antibodies were detected using respective alkaline-phosphatase (AP) coupled secondary antibodies in combination with ‘AttoPhos’ fluorescence substrate. Multiple washing steps have been performed in between individual assay steps.

[13] = molecular target: T4, human IL1RAcP domain 3 (AG-12127) (human); test: ELISA on directly coated human IL-1RAcP domain 3 (AG-12127), IgG titrated, S/BG
T4 construct: also called domain 3 of human IL-1RAcP
T4 chain: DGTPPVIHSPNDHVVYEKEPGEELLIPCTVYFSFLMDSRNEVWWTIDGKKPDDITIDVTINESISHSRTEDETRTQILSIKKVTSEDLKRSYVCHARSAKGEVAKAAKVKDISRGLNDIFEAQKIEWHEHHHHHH

[14] = molecular target: T1, cyIL-1RAP(1-367)_F-chLys_Avi; test: ELISA on cynomolgus IL-1RAcP (AG-12211), IgG1f_AEASS titrated 0.007-200 nM, AP-coupled secondary antibody with AttoPhos, signal over background (S/BG)
Excerpt: as §8

[15] = molecular target: T5, human IL1RAcP domain 1/2 (AG-12337) (human); test: ELISA on directly coated human IL-1RAcP domain 1/2 (AG-12337), IgG1f_AEASS titrated, S/BG
T5 construct: also called domain 1/2 of human IL-1RAcP

Binder | IC50, IFNγ release, PBMC stimulated with IL-1β [1] | IC50, IFNγ release, PBMC stimulated with IL-33 [1] | IC50, IL-8 release, HDFa stimulated with IL-1α [1] | IC50, IL-8 release, HDFa stimulated with IL-36α [1] | IC50, IL-8 release, HDFa stimulated with IL-36β [1] | IC50, IL-8 release, HDFa stimulated with IL-36γ [1] | IC50, IL-8 release, HEKa stimulated with IL-1β [1] | IC50, IL-8 release, HEKa stimulated with IL-36β [1] | IC50, IL-8 release, CyDFa stimulated with cynomolgus IL-1β [2] | Kd [3] | Kd [4] | IC50 (read off the curve) [5] | Kd [6] | Kd [8] | IC50 (read off the curve) [9] | IC50 (read off the curve) [10] | binding result [11] | binding result [13] | EC50 (read off the curve) [15] | also measured
B1 | 4.6 nM | 0.82 nM | 22 nM | 0.18 nM | 0.28 nM | 0.24 nM | 670 nM | 1.98 nM | 1 nM | 0.003 nM | 0.003 nM | – | – | – | – | – | – | – | – | –
B2 | – | – | – | – | – | – | – | – | – | – | – | ~1 nM | 0.221 nM | 0.184 nM | ~1 nM | ~1 nM | – | – | – | IC50 (read off the curve) [7]: ~1 nM
B3 | 5.2 nM | 0.69 nM | 20 nM | 0.025 nM | 0.033 nM | 0.022 nM | 19 nM | 0.029 nM | 0.12 nM | 0.004 nM | 0.004 nM | – | – | – | – | – | no binding (tested: 2e-7 M) | no binding (tested: 2e-7 M) | ~3 nM | EC50 (read off the curve) [12]: 0.1 to 0.2 nM; EC50 (read off the curve) [14]: 0.1 to 0.2 nM
B4 | 3.5 nM | 1.3 nM | 3.6 nM | 0.019 nM | 0.024 nM | 0.008 nM | 18 nM | 0.02 nM | 1 nM | 0.016 nM | 0.021 nM | – | – | – | – | – | no binding (tested: 2e-7 M) | no binding (tested: 2e-7 M) | ~3 nM | –
B5 | – | – | – | – | – | – | – | – | – | – | – | ~1 nM | 0.167 nM | 0.128 nM | ~1 nM | ~2 nM | – | – | – | –
